The chains are these.
B1: Seipin (Saccharomyces cerevisiae), Q06058 (parent)
chain: MKINVSRPLQFLQWSSYIVVAFLIQLLIILPLSILIYHDFYLRLLPADSSNVVPLNTFNILNGVQFGTKFFQSIKSIPVGTDLPQTIDNGLSQLIPMRDNMEYKLDLNLQLYCQSKTDHLNLDNLLIDVYRGPGPLLGAPGGSNSKDEKIFHTSRPIVCLALTDSMSPQEIEQLGPSRLDVYDEEWLNTIRIEDKISLESSYETISVFLKTEIAQRNLIIHPESGIKFRMNFEQGLRNLMLRKRFLSYIIGISIFHCIICVLFFITGCTAFIFVRKGQEKSKKHS
partner: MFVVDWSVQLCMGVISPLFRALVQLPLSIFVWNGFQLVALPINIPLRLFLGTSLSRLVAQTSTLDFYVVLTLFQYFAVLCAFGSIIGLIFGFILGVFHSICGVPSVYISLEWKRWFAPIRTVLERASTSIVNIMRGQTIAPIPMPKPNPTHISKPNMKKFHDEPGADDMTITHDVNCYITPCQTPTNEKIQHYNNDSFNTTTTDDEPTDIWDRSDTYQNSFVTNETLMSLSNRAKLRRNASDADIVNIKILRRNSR

The variants in the test derive from B1. The note with it: with ldb16_yeast LDB16, P25587.
Regarding MKINVSRPLQFLQWSSYIVVAFLIQLLIILPLSILIYHDFYLRLLPADSSNVVPLNTFNILNGVQFGTKFFQSIKSIPVGTDLPQTIDNGLSQLIPMRDNMEYKLDLNLQLYCQSKTDHLNLDNLLIDVYRGPGPLLGAPGGSNSKDEKIFHTSRPIVCLALTDSMSPQEIEQLGPSRLDVYDEEWLNTIRIEDKISLESSYETISVFLKTEIAQRNLIIHPESPIKFRMNFEQGLRNLMLRKRFLSYIIGISIFHCIICVLFFITGCTAFIFVRKGQEKSKKHS [G225P], the “effect of a mutation on the interaction” value was “decreasing interaction strength”.

The values are drawn from IntAct's records for PubMed 24434579.
